In PMC3707205:

Target: NHR2-mH (TAT- and NLS-free NHR2 protein)
Assay: cross-linking; 20 μM protein in PBS, 0.01% glutaraldehyde, room temperature, various times; SDS-PAGE, coomassie staining

Substance: NHR2-mH (TAT- and NLS-free NHR2 protein) (domain or fragment)
- stoichiometry N: 4
